Substitutions are numbered along the chain they refer to.

This note sets out measurements from patent US20220064322A1.

B1: 191C3A8B9 (antibody, mouse IgG1, kappa, V domains shown)
VH: QVQLKESGPGLVAPSQSLSITCTVSGFSLTNYGVHWVRQPPGKGLEWLGVIWAGGSTNYNSALMSRLSISKDNSKSQLFLKMNSLQADDTAMYYCARERGSSWGTMDYWGQGTSVTVSS
VL: QIVLTQSPAIMSASPGEKVTMTCSASSRVSYMHWYQQKSGTSPKRWIYDTSQLASGVPARFSGSGSGTSYSLTISSMEAEDAATYYCQQWSSNPYTFGGGTKLEMRR
B2: JB24Chi (antibody, human IgG1, kappa, V domains shown)
VH: QVQLQQSGLELVKPGASVKMSCKASGYTFTDYNMHWVKQSHGKSLEWIGYIKPHNGGTTYNPKFEGKATLTVNKSSSTAYMELRSLTSEDSAVYYCVRCDFLYWYFDVWGTGTTVTVSS
VL: DIVMTQSPAIMSASLGERVTMTCTASSSVSSSYLHWYQQKPGSSPKLWIYSTSNLASGVPGRFSGSGSGTSYSLTISSMEAEDAATYYCHQYHRSPLTFGAGTKLEMKR
B3: 94H1L3 hIgG2 (antibody)
heavy: QVQLVQSGAEVKKPGASVKVSCKASGYTFTSYWMHWVRQAPGQGLEWMGYINPSSGYTKSNQKFKDRVTMTADTSTSTAYMELSSLRSEDTAVYYCGRWLLSAWFAYWGQGTLVTVSSASTKGPSVFPLAPCSRSTSESTAALGCLVKDYFPEPVTVSWNSGALTSGVHTFPAVLQSSGLYSLSSVVTVPSSNFGTQTYTCNVDHKPSNTKVDKTVERKCCVECPPCPAPPVAGPSVFLFPPKPKDTLMISRTPEVTCVVVDVSHEDPEVQFNWYVDGVEVHNAKTKPREEQFNSTFRVVSVLTVVHQDWLNGKEYKCKVSNKGLPAPIEKTISKTKGQPREPQVYTLPPSREEMTKNQVSLTCLVKGFYPSDIAVEWESNGQPENNYKTTPPMLDSDGSFFLYSKLTVDKSRWQQGNVFSCSVMHEALHNHYTQKSLSLSPGK
light: DIQMTQSPSSLSASVGDRVTITCKASQDINTYLSWFQQKPGKSPKSLIYRSNILVDGVPSRFSGSGSGQDYTLTISSLQPEDFAIYYCLQYDDFPYTFGQGTKLEIKRTVAAPSVFIFPPSDEQLKSGTASVVCLLNNFYPREAKVQWKVDNALQSGNSQESVTEQDSKDSTYSLSSTLTLSKADYEKHKVYACEVTHQGLSSPVTKSFNRGEC
B4: 66-hIgG2 (antibody)
heavy: QVHLQQSGAELAKPGASVNLSCKASGYAFTSYWMHWVKQRPGQGLEWIGYINPSSGLAKYNQKFKDKATLTTDKSSNTAYMQLSSLTYDDSAVYYCGRWLLSAWFAYWGQGTLVTVSAASTKGPSVFPLAPCSRSTSESTAALGCLVKDYFPEPVTVSWNSGALTSGVHTFPAVLQSSGLYSLSSVVTVPSSNFGTQTYTCNVDHKPSNTKVDKTVERKCCVECPPCPAPPVAGPSVFLFPPKPKDTLMISRTPEVTCVVVDVSHEDPEVQFNWYVDGVEVHNAKTKPREEQFNSTFRVVSVLTVVHQDWLNGKEYKCKVSNKGLPAPIEKTISKTKGQPREPQVYTLPPSREEMTKNQVSLTCLVKGFYPSDIAVEWESNGQPENNYKTTPPMLDSDGSFFLYSKLTVDKSRWQQGNVFSCSVMHEALHNHYTQKSLSLSPGK
light: DIKMTQSPSSIYASLGERVTITCKASQGINTYLSWFQQKPGKSPKTLIYRANILVDGVPSRFSGSGSGQDYSLTINSLEYEDMGIYYCLQYDEFPYTFGGGTKLEIKRTVAAPSVFIFPPSDEQLKSGTASVVCLLNNFYPREAKVQWKVDNALQSGNSQESVTEQDSKDSTYSLSSTLTLSKADYEKHKVYACEVTHQGLSSPVTKSFNRGEC
B5: 94-hIgG2 (antibody)
heavy: B4 heavy with H3Q, N19K, A28T, L57Y, A58T, Y60S, T72A, N77S, D89E
light: B4 light with K3R, I11M, G28D, T46S, A51S, N76S, E93D
B6: JB94H2L1 (antibody, human IgG1, kappa, V domains shown)
VH: QVQLVQSGAEVKKPGASVKVSCKASGYTFTSYWMHWVRQRPGQGLEWMGYINPSSGYTKSNQKFKDRVTLTADTSTSTAYMELSSLRSEDTAVYYCGRWLLSAWFAYWGQGTLVTVSS
VL: DIQMTQSPSSLSASVGDRVTITCKASQDINTYLSWFQQKPGKAPKSLIYRSNILVDGVPSRFSGSGSGQDFTLTISSLQPEDFAIYYCLQYDDFPYTFGQGTKLEIKR
B7: JB94H3L3 (antibody, human IgG1, kappa, V domains shown)
VH: B6 VH with V5Q, V20L, M48I, V68A
VL: B6 VL with A43S, F71Y
B8: JB24H2L1 (antibody, human IgG1, kappa, V domains shown)
VH: QVQLVQSGAEVKKPGASVKMSCKASGYTFTDYNMHWVRQSPGKSLEWIGYIKPHNAGTTYNPKFEGRATLTVDTSASTAYMELSSLRSEDTAVYYCVRSDFLYWYFDVWGQGTTVTVSS
VL: DIQMTQSPSSLSASVGDRVTITCTASSSVSSSYLHWYQQKPGKAPKLLIYSTSNLASGVPSRFSGSGSGTDFTLTISSLQPEDFATYYCHQYHRSPLTFGAGTKLEIKR
B9: JB24H3L2 (antibody, human IgG1, kappa, V domains shown)
VH: B8 VH with R38K, P41H, S84R
VL: B8 VL with K43S, L48W, F72Y
B10: JB24H3L3 (antibody, human IgG1, kappa, V domains shown)
VH: B8 VH with R38K, P41H, S84R
VL: B8 VL with Q3V, K43S, A44S, L48W, S61G, F72Y

For one test, the target named is human CD73 on the cell surface (293T/17-huCD73 cells) (human) (UniProt P21589). The test is described as follows: flow cytometry on 293T/17-huCD73 cells, curve fit. For orientation: In flow cytometry, cells or beads pass a laser one at a time.
Sequence of human CD73 on the cell surface (293T/17-huCD73 cells) (human) (P21589 27-549): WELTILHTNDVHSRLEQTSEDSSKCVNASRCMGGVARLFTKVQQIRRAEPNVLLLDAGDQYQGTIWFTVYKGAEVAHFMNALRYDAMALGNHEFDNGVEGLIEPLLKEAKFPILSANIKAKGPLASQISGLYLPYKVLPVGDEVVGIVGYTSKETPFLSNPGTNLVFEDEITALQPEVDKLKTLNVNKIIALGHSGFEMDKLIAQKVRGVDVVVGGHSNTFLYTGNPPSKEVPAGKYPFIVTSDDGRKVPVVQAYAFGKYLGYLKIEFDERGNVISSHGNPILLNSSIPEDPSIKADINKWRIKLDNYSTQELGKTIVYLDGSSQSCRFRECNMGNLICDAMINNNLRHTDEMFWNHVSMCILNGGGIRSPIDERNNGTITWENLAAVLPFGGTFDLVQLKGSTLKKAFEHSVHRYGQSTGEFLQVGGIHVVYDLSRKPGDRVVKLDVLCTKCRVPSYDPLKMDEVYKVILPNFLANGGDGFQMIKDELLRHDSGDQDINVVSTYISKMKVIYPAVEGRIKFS
Turning to B1, the Bottom (fluorescence intensity) turned out to be 2.67 and the Top (fluorescence intensity) was determined as 105.

B2: the Bottom (fluorescence intensity) is -1.47 and the Top (fluorescence intensity) came out at 42.

The target in a further test is T1, human CD73 on the cell surface (293T/17-huCD73 cells) (human), P21589. The test is described as follows: cell-based or functional assay.
T1 sequence (P21589 27-549): as above
B3: the EC50, reversal of AMP-mediated human CD4+ T cell proliferation inhibition was found to be 0.012 nM.

In a further test the target is T1, human CD73 on the cell surface …. The test is described as follows: cell-based or functional assay. This is another data set of the same source.
For B3, the IC50, blockade of 5'exonuclease activity on 293T/17-human CD73 cells was found to be 0.007 nM.

For B4, the IC50, antibody-mediated internalization of CD73 on MDA-MB-231 cells (Fab-ZAP saporin conjugate) stood at 0.022 nM.

With B5, the IC50, antibody-mediated internalization of CD73 on MDA-MB-231 cells (Fab-ZAP saporin conjugate) was 0.019 nM.

A further test deals with human CD73 on the cell surface (293T/17-huCD73 cells) (human) (UniProt P21589). The test is described as follows: flow cytometry on 293T/17-huCD73 cells, fluorescently labelled detection antibody, MFI.
In general, EC50 (read off the curve) refers to the concentration needed to bring the measured effect to its halfway point. For B1, the EC50 (read off the curve) was 1 nM.

Another test has the same target. The test is described as follows: cell-based or functional assay.
The molecule B1 came in with an IC50, blockade of 5'exonuclease activity on 293T/17-HuCD73 cells of 0.009 nM.

Take B2: the EC50, release of IFN-γ from CD4+ T cells (ELISA of supernatant) worked out at 0.0132 nM; the EC50, reversal of AMP-mediated human CD4+ T cell proliferation inhibition was 0.007 nM; the IC50, antibody-mediated internalization of CD73 on MDA-MB-231 cells (Fab-ZAP saporin conjugate) turned out to be 0.012 nM; the IC50, blockade of 5'exonuclease activity of U87-MG cells amounted to 0.053 nM. The IC50, blockade of 5'exonuclease activity on 293T/17-HuCD73 cells came to 0.031 nM; the IC50, blockade of 5'exonuclease activity on 293T/17-human CD73 cells was determined as 0.006 nM; the IC50, blockade of CD73 enzyme activity of CD4+ T cells (CellTiter-Glo) stood at 0.009 nM.

With B6, the IC50, blockade of 5'exonuclease activity of U87-MG cells turned out to be 0.214 nM and the IC50, blockade of 5'exonuclease activity on 293T/17-human CD73 cells was 0.005 nM.

On to B7, for which the IC50, blockade of 5'exonuclease activity of U87-MG cells stood at 0.456 nM and the IC50, blockade of 5'exonuclease activity on 293T/17-human CD73 cells was found to be 0.004 nM.

Molecule B8 yielded an IC50, blockade of 5'exonuclease activity of U87-MG cells of 0.474 nM and an IC50, blockade of 5'exonuclease activity on 293T/17-human CD73 cells of 0.042 nM.

As to B9, the IC50, blockade of 5'exonuclease activity of U87-MG cells amounted to 0.27 nM and the IC50, blockade of 5'exonuclease activity on 293T/17-human CD73 cells worked out at 0.014 nM.

B10 displayed an IC50, blockade of 5'exonuclease activity of U87-MG cells of 0.12 nM and an IC50, blockade of 5'exonuclease activity on 293T/17-human CD73 cells of 0.016 nM.

The next test has the same target. The test is described as follows: flow cytometry on 293T/17-human CD73 cells, curve fit.
B2 registered a Bottom of 3.72 fluorescence and a Top of 196 fluorescence.

For B6, the Bottom came out at 0.604 fluorescence and the Top came out at 223 fluorescence.

The molecule B7 gave a Bottom of 1.78 fluorescence and a Top of 239 fluorescence.

For B8, the Bottom came out at 1.64 fluorescence and the Top stood at 82.2 fluorescence.

Molecule B9 registered a Bottom of 1.78 fluorescence and a Top of 91.7 fluorescence.

As to B10, the Bottom came to 0.131 fluorescence and the Top stood at 120 fluorescence.

A further test shares this target. The test is described as follows: cell-based or functional assay. The source holds these as a separate data set.
In the case of B2, the EC50, reversal of AMP-mediated human CD4+ T cell proliferation inhibition turned out to be 0.003 nM.

Turning to B6, the EC50, reversal of AMP-mediated human CD4+ T cell proliferation inhibition was 0.032 nM.

On to B7, for which the EC50, reversal of AMP-mediated human CD4+ T cell proliferation inhibition came out at 0.003 nM.

In the case of B8, the EC50, reversal of AMP-mediated human CD4+ T cell proliferation inhibition amounted to 0.032 nM.

For the molecule B9, the EC50, reversal of AMP-mediated human CD4+ T cell proliferation inhibition stood at 0.022 nM.

Take B10: the EC50, reversal of AMP-mediated human CD4+ T cell proliferation inhibition came to 0.068 nM.

A further test shares this target. The test is described as follows: cell-based or functional assay. The source holds these as a separate data set.
Take B2: the EC50, release of IFN-γ from CD4+ T cells (ELISA of supernatant) came out at 0.006 nM.

In turn, B6 had an EC50, release of IFN-γ from CD4+ T cells (ELISA of supernatant) of 0.002 nM.

Consider B7, for which the EC50, release of IFN-γ from CD4+ T cells (ELISA of supernatant) came to 0.003 nM.

The molecule B8 came in with an EC50, release of IFN-γ from CD4+ T cells (ELISA of supernatant) of 0.002 nM.

B9: the EC50, release of IFN-γ from CD4+ T cells (ELISA of supernatant) turned out to be 0.015 nM.

On to B10, for which the EC50, release of IFN-γ from CD4+ T cells (ELISA of supernatant) amounted to 0.345 nM.

The target is the same in the next test. The test is described as follows: flow cytometry on 293T/17 cells expressing huCD73, APC-labelled goat anti-human antibody, MFI.
In turn, B2 gave an EC50 (read off the curve) of 6 nM.

B8 showed an EC50 (read off the curve) of 2 nM.

B9: the concentration for a half-maximal effect (EC50 (read off the curve)) stood at 3 nM.

For a further test the target is unchanged. The test is described as follows: flow cytometry on 293T/17-human CD73 cells.
For orientation: EC50 means the concentration giving half of the maximal effect. The low end stands for an effect from little substance, the high end for a need for much substance. B2: the EC50 is 5.33 nM.

As to B6, the concentration for a half-maximal effect (EC50) is 9.15 nM.

Molecule B7 showed an EC50 of 15.3 nM.

On to B8, for which the EC50 worked out at 2.4 nM.

Take B9: the EC50 amounted to 3.01 nM.

B10 yielded an EC50 of 7.41 nM.

The target is the same in another test. The test is described as follows: flow cytometry on 293T/17-huCD73 cells.
On to B1, for which the EC50 was 0.828 nM.

With B2, the EC50 amounted to 1.14 nM.

The target of the next test is T1, human CD73 on the cell surface …. The test is described as follows: cell-based or functional assay. This is another data set of the same source.
In turn, B3 showed an EC50, release of IFN-γ from CD4+ T cells (ELISA of supernatant) of 0.001 nM.
